Patent publication US20090081760A1, “DMO METHODS AND COMPOSITIONS” (priority 2007, published 2009)

Test system: Dicamba
Assay: LC-MS/MS screen for oxygenase (DMO) activity: E. coli liquid culture expressing ddmC or a variant, grown with dicamba, DCSA detected in supernatant
Type: cell-based
Settings: for Changed to: M % of control for set / Changed to: M DCSA values (ppm): residue changed to M; for Changed to: C % of control for set / Changed to: C DCSA values (ppm): residue changed to C
Protocol: An LC-MS/MS screen for oxygenase activity was used to detect DCSA. The method comprises a two stage process made up of a liquid cell culture assay coupled to an LC-MS/MS detection screen. In the liquid cell culture stage, the gene of interest, i.e. ddmC or a variant thereof, was cloned under the control of a promoter (e.g. T7 promoter, pET vector) and transformed into an E. coli host cell. […] Cells were spun down, and the supernatant was filtered and diluted tenfold with the inclusion of 8 μM salicylic acid as an internal standard. Samples of the supernatant, and/or optionally the cell pellet (or lysate thereof), from this first stage were analyzed for DCSA levels (i.e. DMO activity level) by LC-MS/MS.
While many oxygenases such as DMO are multi component systems requiring other helper enzymes for activity, it was observed that components in E. coli may substitute for these helper enzymes or functions. Thus, transformation of E. coli with a single “oxygenase” gene from a multi component system nevertheless results in measurable activity for the gene alone, even without other components being co-transformed into the same E. coli cell. Activity is observed because, in E. coli cells, surrogates with homology to the original helper enzymes (e.g. ferredoxin and reductase) may be utilized. Additionally, E. coli can take up substrate (e.g. dicamba) and excrete the product (e.g. DCSA) into the media supernatant, allowing for the speed and simplicity of this cell based screen. No lysis of cells is required. Alternatively, an HPLC-based assay for DMO activity may be utilized. Promising variants were used as templates for additional rounds DOT and or other mutagenesis methods in an iterative manner. […]
Sets of saturation mutagenesis primers (using NNS degenerate triplets) for 31 residues at the active site and involved in the electron transfer chain as indicated in Table 28 were designed and used to introduce mutations into the ddmC gene by means of terminated PCR on the template (ddmC gene with His tag and two changes, T2S+I123L (SEQ ID NO:23) in pMV4 vector (Modular Genetics, Cambridge, Mass.). Resulting PCR products were treated with DpnI to remove the parental template molecules, self-annealed and transformed into chemically competent E. coli Top10 F′ (Invitrogen, Carlsbad, Calif.). Standard DNA cloning methods were utilized (e.g. Sambrook et al., 1989). The individual colonies were grown in liquid culture. DNA was isolated by a standard miniprep procedure and used to transform the chemically competent E. coli (e.g. BL21(DE3)). […] Cells were spun down, and the supernatant was filtered and diluted tenfold with 8 μM salicylic acid as an internal standard. The DCSA levels (i.e. DMO activity level) were determined by LC-MS analysis as described above (e.g. Example 8).
Additional single substitution variants of DMO at residues corresponding to interaction (e.g. subunit interface) domains and the ferredoxin binding site were also prepared and assayed for their effect on enzymatic activity (See also Examples 8A, 8B) by the LC/MS screen. In most cases shown in Table 29, one conservative and one neutral substitution was tried at a given residue.
Table 30 lists DMO activity data (by LC/MS screen) for 58 variants relative to ddmC_M—6his (the wild type ddmC sequence with an N-terminal His tag (SEQ ID NO: 154), while Table 31 lists DMO activity data (by LC/MS screen) for 1685 variants relative to ddmC_RLE6his (the wild type ddmC sequence with T2S and I123L mutations (SEQ ID NO:23), and a C-terminal 6×His tag). The numbering of residues is based on the numbering found in SEQ ID NO:2 or SEQ ID NO:3.

[1] = DCSA relative to control average of the data set

B1: G266S: DMO variant from NNS mutagenesis, more active than the control (protein)
chain: MATFVRNAWYVAALPEELSEKPLGRTILDTPLALYRQPDGVVAALLDICPHRFAPLSDGILVNGHLQCPYHGLEFDGGGQCVHNPHGNGARPASLNVRSFPVVERDALIWICPGDPALADPGAIPDFGCRVDPAYRTVGGYGHVDCNYKLLVDNLMDLGHAQYVHRANAQTDAFDRLEREVIVGDGEIQALMKIPGGTPSVLMAKFLRGANTPVDAWNDIRWNKVSAMLNFIAVAPEGTPKEQSIHSRGTHILTPETEASCHYFFSSSRNFGIDDPEMDGVLRSWQAQALVKEDKVVVEAIERRRAYVEANGIRPAMLSCDEAAVRVSREIEKLEQLEAARLEHHHHHH
DMO activity of NNS mutagenesis variants (in words) (NNS saturation mutagenesis variants, 200 to 500 μM Dicamba, 30 hrs, 37° C.): more active than the control | Changed to: S % of control for set (residue changed to S, DCSA relative to control average of the data set): 130.25% | Changed to: S DCSA values (ppm) (residue changed to S, mean +/− SD (n)): 34.63 +/− 4.14 (4) ppm

B2: N218M: DMO substitution variant (protein)
chain: MATFVRNAWYVAALPEELSEKPLGRTILDTPLALYRQPDGVVAALLDICPHRFAPLSDGILVNGHLQCPYHGLEFDGGGQCVHNPHGNGARPASLNVRSFPVVERDALIWICPGDPALADPGAIPDFGCRVDPAYRTVGGYGHVDCNYKLLVDNLMDLGHAQYVHRANAQTDAFDRLEREVIVGDGEIQALMKIPGGTPSVLMAKFLRGANTPVDAWMDIRWNKVSAMLNFIAVAPEGTPKEQSIHSRGTHILTPETEASCHYFFGSSRNFGIDDPEMDGVLRSWQAQALVKEDKVVVEAIERRRAYVEANGIRPAMLSCDEAAVRVSREIEKLEQLEAARLEHHHHHH
Changed to: M % of control for set [1]: 106.92% | Changed to: M DCSA values (ppm) (mean +/− SD (n)): 40.87 +/− 0.62 (2) ppm

B3: A287C: DMO substitution variant (protein)
chain: MATFVRNAWYVAALPEELSEKPLGRTILDTPLALYRQPDGVVAALLDICPHRFAPLSDGILVNGHLQCPYHGLEFDGGGQCVHNPHGNGARPASLNVRSFPVVERDALIWICPGDPALADPGAIPDFGCRVDPAYRTVGGYGHVDCNYKLLVDNLMDLGHAQYVHRANAQTDAFDRLEREVIVGDGEIQALMKIPGGTPSVLMAKFLRGANTPVDAWNDIRWNKVSAMLNFIAVAPEGTPKEQSIHSRGTHILTPETEASCHYFFGSSRNFGIDDPEMDGVLRSWQCQALVKEDKVVVEAIERRRAYVEANGIRPAMLSCDEAAVRVSREIEKLEQLEAARLEHHHHHH
Changed to: C % of control for set [1]: 109.56% | Changed to: C DCSA values (ppm) (mean +/− SD (n)): 29.13 +/− 5.46 (4) ppm

B4: R248C: DMO substitution variant (protein)
chain: MATFVRNAWYVAALPEELSEKPLGRTILDTPLALYRQPDGVVAALLDICPHRFAPLSDGILVNGHLQCPYHGLEFDGGGQCVHNPHGNGARPASLNVRSFPVVERDALIWICPGDPALADPGAIPDFGCRVDPAYRTVGGYGHVDCNYKLLVDNLMDLGHAQYVHRANAQTDAFDRLEREVIVGDGEIQALMKIPGGTPSVLMAKFLRGANTPVDAWNDIRWNKVSAMLNFIAVAPEGTPKEQSIHSCGTHILTPETEASCHYFFGSSRNFGIDDPEMDGVLRSWQAQALVKEDKVVVEAIERRRAYVEANGIRPAMLSCDEAAVRVSREIEKLEQLEAARLEHHHHHH
Changed to: C % of control for set [1]: 132.69% | Changed to: C DCSA values (ppm) (mean +/− SD (n)): 35.28 +/− 12.15 (4) ppm

B5: N218H: DMO substitution variant (protein)
chain: MATFVRNAWYVAALPEELSEKPLGRTILDTPLALYRQPDGVVAALLDICPHRFAPLSDGILVNGHLQCPYHGLEFDGGGQCVHNPHGNGARPASLNVRSFPVVERDALIWICPGDPALADPGAIPDFGCRVDPAYRTVGGYGHVDCNYKLLVDNLMDLGHAQYVHRANAQTDAFDRLEREVIVGDGEIQALMKIPGGTPSVLMAKFLRGANTPVDAWHDIRWNKVSAMLNFIAVAPEGTPKEQSIHSRGTHILTPETEASCHYFFGSSRNFGIDDPEMDGVLRSWQAQALVKEDKVVVEAIERRRAYVEANGIRPAMLSCDEAAVRVSREIEKLEQLEAARLEHHHHHH
Changed to: H % of control for set (residue changed to H, DCSA relative to control average of the data set): 104.38% | Changed to: H DCSA values (ppm) (residue changed to H, mean +/− SD (n)): 39.9 +/− 9.75 (4) ppm

B6: R248I: DMO substitution variant (protein)
chain: MATFVRNAWYVAALPEELSEKPLGRTILDTPLALYRQPDGVVAALLDICPHRFAPLSDGILVNGHLQCPYHGLEFDGGGQCVHNPHGNGARPASLNVRSFPVVERDALIWICPGDPALADPGAIPDFGCRVDPAYRTVGGYGHVDCNYKLLVDNLMDLGHAQYVHRANAQTDAFDRLEREVIVGDGEIQALMKIPGGTPSVLMAKFLRGANTPVDAWNDIRWNKVSAMLNFIAVAPEGTPKEQSIHSIGTHILTPETEASCHYFFGSSRNFGIDDPEMDGVLRSWQAQALVKEDKVVVEAIERRRAYVEANGIRPAMLSCDEAAVRVSREIEKLEQLEAARLEHHHHHH
Changed to: I % of control for set (residue changed to I, DCSA relative to control average of the data set): 146.23% | Changed to: I DCSA values (ppm) (residue changed to I, mean +/− SD (n)): 38.88 +/− 3.93 (4) ppm

B7: A287E: DMO substitution variant (protein)
chain: MATFVRNAWYVAALPEELSEKPLGRTILDTPLALYRQPDGVVAALLDICPHRFAPLSDGILVNGHLQCPYHGLEFDGGGQCVHNPHGNGARPASLNVRSFPVVERDALIWICPGDPALADPGAIPDFGCRVDPAYRTVGGYGHVDCNYKLLVDNLMDLGHAQYVHRANAQTDAFDRLEREVIVGDGEIQALMKIPGGTPSVLMAKFLRGANTPVDAWNDIRWNKVSAMLNFIAVAPEGTPKEQSIHSRGTHILTPETEASCHYFFGSSRNFGIDDPEMDGVLRSWQEQALVKEDKVVVEAIERRRAYVEANGIRPAMLSCDEAAVRVSREIEKLEQLEAARLEHHHHHH
Changed to: E % of control for set (residue changed to E, DCSA relative to control average of the data set): 113.40% | Changed to: E DCSA values (ppm) (residue changed to E, mean +/− SD (n)): 30.15 +/− 2.76 (4) ppm

B8: A287M: DMO substitution variant (protein)
chain: MATFVRNAWYVAALPEELSEKPLGRTILDTPLALYRQPDGVVAALLDICPHRFAPLSDGILVNGHLQCPYHGLEFDGGGQCVHNPHGNGARPASLNVRSFPVVERDALIWICPGDPALADPGAIPDFGCRVDPAYRTVGGYGHVDCNYKLLVDNLMDLGHAQYVHRANAQTDAFDRLEREVIVGDGEIQALMKIPGGTPSVLMAKFLRGANTPVDAWNDIRWNKVSAMLNFIAVAPEGTPKEQSIHSRGTHILTPETEASCHYFFGSSRNFGIDDPEMDGVLRSWQMQALVKEDKVVVEAIERRRAYVEANGIRPAMLSCDEAAVRVSREIEKLEQLEAARLEHHHHHH
Changed to: M % of control for set [1]: 149.32% | Changed to: M DCSA values (ppm) (mean +/− SD (n)): 39.7 +/− 5.86 (4) ppm

B9: A169M: DMO substitution variant (protein)
chain: MATFVRNAWYVAALPEELSEKPLGRTILDTPLALYRQPDGVVAALLDICPHRFAPLSDGILVNGHLQCPYHGLEFDGGGQCVHNPHGNGARPASLNVRSFPVVERDALIWICPGDPALADPGAIPDFGCRVDPAYRTVGGYGHVDCNYKLLVDNLMDLGHAQYVHRANMQTDAFDRLEREVIVGDGEIQALMKIPGGTPSVLMAKFLRGANTPVDAWNDIRWNKVSAMLNFIAVAPEGTPKEQSIHSRGTHILTPETEASCHYFFGSSRNFGIDDPEMDGVLRSWQAQALVKEDKVVVEAIERRRAYVEANGIRPAMLSCDEAAVRVSREIEKLEQLEAARLEHHHHHH
Changed to: M % of control for set [1]: 108.70% | Changed to: M DCSA values (ppm) (mean +/− SD (n)): 28.9 +/− 5.06 (4) ppm
